Molecular target: HIVSF162 Env on pseudotyped virions (HIV-1 SF162) (UniProt P19550)
Assay: cell-based or functional assay

human Mab 697D (antibody)
ND50: 80 µg/mL
